Molecular target: catalytic domain of KAT2A (as crystallised, apo and with succinyl-CoA)
Assay: crystal structure; apo (space group P4_(1)2_(1)2) and succinyl-CoA-complexed (P2_(1)3) crystals of the catalytic domain, grown at pH 4.6; octahedral assembly seen in both

stoichiometry N: 24
Substance: catalytic domain of KAT2A (as crystallised, apo and with succinyl-CoA) (domain or fragment)

Reference: publication PMC6079010
